Data on 1 substance can be found in patent US8242240B2, “Anti-inflammatory compounds and uses thereof” (Yale University, priority 2000, dated 2012).

The target of the test is T1, IKKα-NEMO interaction (Homo sapiens, UniProt Q9Y6K9).
T1 construct: bacterially expressed version of full length NEMO fused at its NH2-terminus to glutathione S-transferase; made in house; host or cells: bacteria (GST-NEMO); in vitro transcription/translation (IKKα)
The test is described as follows: GST pull-down of IKKα by GST-NEMO in the presence of NBD peptide. The following applies: peptide 500 and 1000 μM. It is filed as binding. As for the experimental part: (A) Sequences of the NBD wild type (SEQ ID NO:177) and scrambled control peptides (SEQ ID NO:178). The wild type peptide corresponds to residues 734 to 744 of IKKβ. (B) GST pull-down analysis was performed using GST-NEMO and in vitro transcribed and translated IKKα (upper panel) and IKKβ (middle panel) in the presence or absence of either vehicle (2% DMSO), scrambled or wild type NBD peptide (500 and 1000 μM of each peptide). […] (C) Densitometric analysis of autoradiograph bands obtained following GST pull-down of IKKa and IKKb using GST-NEMO in the presence of a range of concentrations of wild type NBD peptide. […] The data are presented as the pixel density as a percentage of control (no peptide) and represent means±sd (n=11). Analysis was performed using the NIH-Image software.

T1 sequence (Q9Y6K9 whole entry, the tested form may be a part): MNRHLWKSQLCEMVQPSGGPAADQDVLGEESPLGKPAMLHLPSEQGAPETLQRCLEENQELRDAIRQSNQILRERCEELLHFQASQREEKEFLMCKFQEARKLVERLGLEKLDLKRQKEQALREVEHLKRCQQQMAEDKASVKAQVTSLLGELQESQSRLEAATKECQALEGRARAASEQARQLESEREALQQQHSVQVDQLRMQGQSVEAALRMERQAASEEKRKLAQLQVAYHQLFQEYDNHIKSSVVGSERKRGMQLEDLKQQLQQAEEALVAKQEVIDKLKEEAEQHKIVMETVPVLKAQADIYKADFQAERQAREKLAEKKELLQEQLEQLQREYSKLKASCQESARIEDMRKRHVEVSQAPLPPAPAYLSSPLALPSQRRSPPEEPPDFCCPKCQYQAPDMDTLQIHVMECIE

Consider “NBD wild type (SEQ ID NO:177): wild type peptide corresponding to residues 734 to 744 of IKKβ (FTALDWSWLQT; Description of Unknown: Unknown wildtype NBD peptide)”, for which the “interaction of IKKα with NEMO (GST pull-down)” value is “prevents”.
